{
  "source": "patent US20050158323A1",
  "about": "“Methods of killing tumor cells by targeting internal antigens exposed on apoptotic tumor cells” (Vaccinex, Inc., priority 2003, published 2005)",
  "molecules": {"B1": {"name": "1F2: mouse monoclonal anti-C35 antibody from hybridoma 1F2, gamma1 isotype, kappa light chain; VH SEQ ID NO:4, VK SEQ ID NO:6 (antibody, listed as Mus sp., V domains shown)", "VH": "DVQLQESGPGLVKPSQSLSLTCSVTGYSITSGYFWNWIRQFPGNKLEWMGYISYDGSNNSNPSLKNRISFTRDTSKNQFFLKFNSVTTDDSAAYYCTRGTTGFAYWGQGTLVTVSA", "VL": "QIVLTQSPAIMSASPGEKVTISCSASSSVSYMNWYQQKPGSSPKPWIYHTSNLASGVPARFSGSGSGTSYSLTISSMEAEDAATYYCQQYHSYPPTFGGGTKLEIK"}},
  "key": {"[1]": {"assay": "Maximum Tolerated Dose of chemotherapy in xenograft models (Table 6)", "conditions": "mouse, in vivo, intravenous; nude mice; MTD confirmed by present inventors", "description": "Because of concerns regarding cumulative dose-limiting bone marrow toxicity when combining chemotherapy and radioimmunotherapy, it is necessary to determine the Maximum Tolerated Dose (MTD) of combination therapy and, where toxicity of the two therapeutic agents is additive, adopt strategies that will permit administration of both toxic agents. MTD is established by regulatory criteria related to the time required for platelet and white cell recovery in peripheral circulation. Such standards are familiar to those skilled in the art. In the case of murine models, an often employed surrogate definition of MTD is the maximum dose that results in an average of less than 20% weight loss or less than 10% mortality. Currently established MTD for the most common chemotherapeutic agents employed in standard clinical protocols or in animal models are shown in Tables 6 to 9, below."}, "[2]": {"test_system": "21MT1 tumor cells", "assay": "Taxol induced apoptosis and C35 exposure, annexin V/PI flow cytometry", "assay_type": "cell-based, human", "conditions": "0.5 uM, 24 hours", "experimental": "24 hours following treatment with 0.5 uM Taxol™, 21MT1 tumor cells were stained with annexin V-FITC, propidium iodide, and with either 100 ng anti-C35 antibody 1F2 (dark line) or isotype control (grey fill) antibody. Both antibodies were directly conjugated to Alexa-647. Histograms were gated on the cells undergoing apoptosis (annexinV positive/PI negative).\nAntibodies were pre-incubated with PAB buffer (FIG. 3A), 100-fold molar excess recombinant C35 protein (FIG. 3B), or 100-fold molar excess β-galactosidase protein (FIG. 3C)."}, "[3]": {"conditions": "nude mice; non-toxic dose at indicated schedule; cited from earlier work"}, "[4]": {"target": "T1, C35 on surface membrane of 21MT1 breast tumor cells (Homo sapiens, UniProt Q9BRT3)", "T1 construct": "21MT1, derived from breast carcinoma, naturally expresses high levels of C35; endogenous in cells; host or cells: 21MT1 breast tumor cells", "T1 sequence (Q9BRT3 1-115)": "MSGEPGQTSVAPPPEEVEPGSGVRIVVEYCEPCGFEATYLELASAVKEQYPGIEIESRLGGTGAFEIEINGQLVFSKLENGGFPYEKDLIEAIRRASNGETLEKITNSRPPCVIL", "assay": "C35 surface staining of breast tumor cells after radiation induced apoptosis (flow cytometry)", "assay_type": "cell-based", "conditions": "50 ng Alexa 647 conjugated antibody", "experimental": "(§1) A line of continuously growing breast tumor cells that express the C35 tumor antigen was either irradiated with 300 Gy or left untreated. After continued in vitro culture for several days to allow apoptosis to develop, cells were harvested, washed and stained with 50 ng of 1F2 monoclonal anti-C35 antibody or a mouse IgG antibody control each conjugated to the fluorescent dye Alexa 647. Following 50 minutes incubation at 25C, cells were stained with Annexin V and propidium iodide (PI) using a standard commercial kit (Pharmingen). Cells were analyzed for staining with Annexin V, propidium iodide and Alexa 647 by flow cytometry employing standard protocols."}, "[5]": {"target": "T2, C35 on surface membrane of breast tumor cells that express the C35 tumor antigen (Homo sapiens, UniProt Q9BRT3)", "T2 construct": "A line of continuously growing breast tumor cells that express the C35 tumor antigen; endogenous in cells", "T2 sequence (Q9BRT3 1-115)": "T1 sequence (Q9BRT3 1-115)", "assay": "C35 surface staining of breast tumor cells after mitomycin C induced apoptosis (flow cytometry)", "assay_type": "cell-based", "conditions": "50 ng Alexa 647 conjugated antibody", "experimental": "as §1, with “treated” for “irradiated”, “6 ug/ml mitomycin C” for “300 Gy”, “48 hours” for “several days”"}, "[6]": {"target": "T3, recombinant human C35 (rhC35) (Homo sapiens, UniProt Q9BRT3)", "T3 construct": "made in house; host or cells: E. coli", "T3 sequence (Q9BRT3 1-52)": "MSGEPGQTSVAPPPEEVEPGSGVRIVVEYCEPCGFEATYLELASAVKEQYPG", "assay": "Epitope localization by Western blot of Lys-C digested rhC35", "assay_type": "binding", "conditions": "Western blot, 1 μg/ml antibody", "description": "(§2) To localize the epitope specificity of 1B3 and 1F2 antibodies, recombinant human C35 (rhC35) synthesized with a 6× His tag in E. coli was digested with Lys-C endoproteinase. This enzyme cuts after lysine (K) residues in the protein sequence. […] The full sequence of rhC35, including the amino terminal 6× His tag addition is shown. Amino acid positions are numbered relative to the amino terminal methionine (M) of the native human sequence. Note that digestion at the first and third lysine followed by negatively charged residues is inefficient and some longer combination fragments may be generated. Lys-C endoproteinase was added to purified rhC35 at a […] weight ratio and incubated for 18 hours at 37° C. in 25 mM Tris, pH 8.0. The digest was ethanol precipitated and resolubilized in reducing Tricine sample buffer. After heating 5 minutes at 100° C., samples were separated by electrophoresis on a 16% Tricine gel (Invitrogen). Peptides were transferred to PVDF membranes and the blots depicted in FIG. 10 were either stained with Coomassie blue (lanes 1-3 of both left and right panels) to detect all peptides or processed with one of the following: 1 μg/ml of the murine 1F2 anti-C35 antibody followed by alkaline phosphatase conjugated goat anti-mouse antibody (lane 4 of left panel); 1 μg/ml of the 1B3 anti-C35 immunoglobulin variable regions linked to human constant regions (MAb11) followed by alkaline phosphatase conjugated goat anti-human antibody (lane 5 of left panel); or anti-6× His tag mouse antibody (Amersham) followed by alkaline phosphatase conjugated goat anti-mouse antibody (lane 4 and 5 of right panel). BCIP/NBT substrate was added and developed to detect the secondary reagents. Molecular weight markers are indicated in the flanking lanes of both panels.\n(§3) In FIG. 10, the indicated band A migrates at the position of undigested rhC35. Note that band B stains with 1F2 but not MAb11 (1B3) anti-C35 antibody while band C stains with neither 1F2 nor MAb11 (1B3) antibody. Since bands B and C both do stain with anti-6× His tag antibody to the 6× His tag at the amino terminus of rhC35, it may be concluded that both fragments lack C-terminal peptide fragments. […] This epitope is not required for staining with 1F2."}, "[7]": {"target": "T4, recombinant human C35 (rhC35) (Homo sapiens, UniProt Q9BRT3)", "T4 construct": "made in house; host or cells: E. coli", "T4 sequence (Q9BRT3 1-104)": "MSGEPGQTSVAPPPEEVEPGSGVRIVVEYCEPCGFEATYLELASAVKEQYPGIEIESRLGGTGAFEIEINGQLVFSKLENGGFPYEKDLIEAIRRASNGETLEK", "assay": "Epitope localization by Western blot of Lys-C digested rhC35", "assay_type": "binding", "conditions": "Western blot, 1 μg/ml antibody", "description": "as §2, §3", "remark": "listed apart in the source"}, "[8]": {"target": "T5, recombinant human C35 (rhC35) (Homo sapiens, UniProt Q9BRT3)", "T5 construct": "made in house; host or cells: E. coli", "T5 sequence (Q9BRT3 1-115)": "T1 sequence (Q9BRT3 1-115)", "assay": "Epitope localization by Western blot of Lys-C digested rhC35", "assay_type": "binding", "conditions": "native C35 sequence numbering; 1 μg/ml antibody", "description": "as §2, §3"}, "[9]": {"target": "T6, C35 protein (Homo sapiens, UniProt Q9BRT3)", "T6 sequence (Q9BRT3 1-115)": "T1 sequence (Q9BRT3 1-115)", "assay": "ELISA and Western Blot of hybridoma antibodies", "assay_type": "binding", "conditions": "ELISA and Western Blot assays", "experimental": "(§4) Hybridoma cell lines IF2.4.1 and 1B3.6.1, specific for C35 polypeptides, were prepared using hybridoma technology. (Kohler et al., Nature 256:495 (1975); Kohler et al., Eur. J. Immunol. 6:511 (1976); Kohler et al., Eur. J. Immunol. 6:292 (1976); Hammerling et al., in: Monoclonal Antibodies and T-Cell Hybridomas, Elsevier, N.Y., pp. 571-681 (1981)). Briefly, hybridoma cell lines were generated using standard PEG fusion to the non-secreting myeloma cell line NS-1 (P3/NS1/1-AG4-1, ATCC #TIB-18) of splenocytes from BALB/c mice immunized with syngeneic BCA34 fibroblast tumor cells transduced to overexpress C35. Following PEG fusion to NS-1, the hybridomas were grown in methylcellulose semi-solid media. Approximately 2 weeks later, hybridoma colonies were isolated into 96 well plates and individual supernatants were tested for reactivity with C35 by ELISA, Western blot, and immunohistochemistry. Positive hybridomas colonies were subcloned and screened for reactivity twice to ensure clonality. Antibodies were isolated from hybridoma supernatants by protein G affinity purification using standard methods. […] In addition, we have developed intracellular staining flow cytometry assays for quantitative analysis using antibodies from hybridoma cell line 1F2 conjugated to Alexa-647 flourochrome. Each of these antibodies is distinct, yet both are specific for C35 protein. […]"}, "[10]": {"target": "T7, C35 positive tumors and cell lines (Homo sapiens, UniProt Q9BRT3)", "T7 construct": "from tissue", "T7 sequence (Q9BRT3 1-115)": "T1 sequence (Q9BRT3 1-115)", "assay": "Immunohistochemistry of formalin fixed, paraffin embedded samples", "assay_type": "binding", "experimental": "as §4"}, "[11]": {"target": "T6, C35 protein", "assay": "Competitive binding ELISA", "conditions": "1F2 versus 1B3", "experimental": "as §4"}, "[12]": {"conditions": "untreated live cells (PI negative), Annexin V negative"}},
  "data": [
    {"molecule": "COc1cccc2c1C(=O)c1c(O)c3c(c(O)c1C2=O)C[C@@](O)(C(=O)CO)C[C@@H]3O[C@H]1C[C@H](N)[C@H](O)[C@H](C)O1", "note": "[Adriamycin, Doxorubicin]", "values": [
      {"measurement": "MTD", "setting": "[1]", "value": 10, "unit": "mg/kg"}
    ]},
    {"molecule": "CC(=O)O[C@H]1C(=O)[C@@]2(C)[C@H]([C@H](OC(=O)c3ccccc3)[C@]3(O)C[C@H](OC(=O)[C@H](O)[C@@H](NC(=O)c4ccccc4)c4ccccc4)C(C)=C1C3(C)C)[C@]1(OC(C)=O)CO[C@@H]1C[C@@H]2O", "note": "[Taxol, paclitaxel]", "values": [
      {"measurement": "induction of apoptosis with exposure of C35 on the cell surface", "setting": "[2]", "value": "induces apoptosis"},
      {"measurement": "Maximum Tolerated Dose", "setting": "[3]", "value": "No toxicity^2"}
    ]},
    {"molecule": "B1", "values": [
      {"measurement": "differential staining versus isotype control antibody", "setting": "[4]; irradiated (300 Gy) tumor cells, viable (PI negative), undergoing apoptosis (Annexin V positive)", "value": "clearly differentially stained"},
      {"measurement": "differential staining versus isotype control antibody", "setting": "[4]; [12]", "value": "absence of differential staining"},
      {"measurement": "differential staining versus isotype control antibody", "setting": "[5]; 6 ug/ml mitomycin C, 48 hours, viable (PI negative), undergoing apoptosis (Annexin V positive)", "value": "clearly differentially stained"},
      {"measurement": "differential staining versus isotype control antibody", "setting": "[5]; [12]", "value": "absence of differential staining"},
      {"measurement": "staining of approximately 8 kDa band C (in addition lacks residues 53-104)", "setting": "[6]", "value": "does not react"},
      {"measurement": "staining of approximately 15 kDa band B (lacks C35 residues 105-115)", "setting": "[7]", "value": "stains"},
      {"measurement": "epitope specificity", "setting": "[8]", "value": "residues 53-104"},
      {"measurement": "binding to recombinant C35 protein", "setting": "[9]", "value": "specifically bind recombinant C35 protein"},
      {"measurement": "immunohistochemical staining", "setting": "[10]", "value": "specifically stain formalin fixed, paraffin embedded C35 positive tumors and cell lines"},
      {"measurement": "epitope comparison by competition", "setting": "[11]", "value": "bind different epitopes of the C35 protein"}
    ]}
  ]
}
